Assay results as given in patent US20140148501, “DNA APTAMERS FOR PROMOTING REMYELINATION” (MAYO FOUNDATION FOR MEDICAL EDUCATION AND RESEARCH, published 2014).

Key:
[1] = target: T1, Proteolipid protein PLP (12.5 kDa band) (Mus musculus, UniProt P60202 P60202:2-277); assay: southwestern blot; conditions: tags: none; from crude SJL mouse CNS myelin, SDS-PAGE separated and blotted to PVDF; label: 5'-fluorescein
T1 sequence: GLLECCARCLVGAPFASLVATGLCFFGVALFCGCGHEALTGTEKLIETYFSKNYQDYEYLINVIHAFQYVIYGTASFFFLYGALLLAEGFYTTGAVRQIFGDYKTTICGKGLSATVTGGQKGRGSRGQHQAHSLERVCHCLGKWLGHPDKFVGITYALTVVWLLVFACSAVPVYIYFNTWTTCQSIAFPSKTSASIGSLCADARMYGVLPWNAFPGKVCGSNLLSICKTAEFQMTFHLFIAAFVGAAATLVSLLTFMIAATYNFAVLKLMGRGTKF
Procedure: (§1) To promote intramolecular folding, aptamer stock solutions (5 μM) in PBS were heated to 90° C., MgCl₂ was added to a final concentration of 1 mM, and solutions were allowed to cool room temperature. Myelin stock was diluted in PBS and sonicated on ice. Fluorescent folded aptamers were added to different amounts of myelin suspension and incubated at 37° C. for 3 hours. Insoluble material with bound aptamers was recovered by centrifugation for 30 seconds in a microcentrifuge. The pellet was washed with 100 μL PBS and again recovered by centrifugation. After phenol extraction and ethanol precipitation, fluorescent aptamers were quantitated in black plastic 96-well plates using a Typhoon Fluorescent Imaging system (GE Healthcare Biosciences; Piscataway, N.J.). For Southwestern blotting, 15 μg crude myelin protein was separated in each lane of a 10% Bis-Tris SDS polyacrylamide gel in 2-(N-morpholino)ethanesulfonic acid (MES) buffer. After electrophoresis, duplicate lanes were either stained with Coomassie blue dye or transferred to polyvinylidene fluoride (PVDF) membrane by electroblotting. Western blotting was performed by standard methods using antibodies with the indicated specificities. For southwestern blots, membranes were blocked for 30 minutes at 37° C. in tris-buffered saline and TWEEN® 20 (TBST) buffer containing with 1% bovine serum albumin (BSA), 10% non-fat dry milk, 2 mg/mL sonicated and heat-denatured salmon testis DNA, and TWEEN® 20 detergent. Folded fluorescent aptamers (5 μM final concentration) were then added in PBS containing 1 mM MgCl₂ and incubated with PVDF membranes for 14 hours, followed by washing in TBST buffer and then in 0.5× tris/borate/EDTA (TBE) buffer. Fluorescein fluorescence was then detected on membranes using the Typhoon Fluorescent Imaging system. Tryptic peptide mass fingerprinting was performed.
(§2) The specificity of anti-myelin DNA aptamer 3064 and controls 3060 and 3202 was analyzed by assessing the binding of fluorescent aptamers to crude myelin protein suspension using centrifugal sedimentation to recover bound aptamers (FIG. 5A).

[2] = target: T2, Myelin oligodendrocyte glycoprotein MOG (23.8 kDa band) (Mus musculus, UniProt Q61885 Q61885:29-246); assay: southwestern blot; conditions: tags: none; from crude SJL mouse CNS myelin, SDS-PAGE separated and blotted to PVDF; label: 5'-fluorescein
T2 sequence: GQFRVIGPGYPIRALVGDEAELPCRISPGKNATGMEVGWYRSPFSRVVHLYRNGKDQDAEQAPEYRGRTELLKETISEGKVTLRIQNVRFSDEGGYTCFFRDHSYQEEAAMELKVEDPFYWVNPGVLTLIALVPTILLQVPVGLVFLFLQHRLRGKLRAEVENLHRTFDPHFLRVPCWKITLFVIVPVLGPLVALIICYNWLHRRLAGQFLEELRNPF
Procedure: as §1, §2

[3] = target: T3, Myelin basic protein isoforms containing exon 2-encoded sequence (17 kDa and 21.5 kDa) (Mus musculus, UniProt P04370-4 P04370-4:2-195); assay: southwestern blot; conditions: tags: none; from crude SJL mouse CNS myelin, SDS-PAGE separated and blotted to PVDF; label: 5'-fluorescein
Procedure: as §1, §2

[4] = target: T4, Myelin basic protein 18.5 kDa isoform (Mus musculus, UniProt P04370-5 P04370-5:2-169); assay: southwestern blot; conditions: tags: none; from crude SJL mouse CNS myelin, SDS-PAGE separated and blotted to PVDF; label: 5'-fluorescein
Procedure: as §1, §2

[5] = target: T1, Proteolipid protein PLP (12.5 kDa band); assay: southwestern blot; control selected for chelated Ni; conditions: tags: none; from crude SJL mouse CNS myelin, SDS-PAGE separated and blotted to PVDF; label: 5'-fluorescein; putative intramolecular G4
Procedure: (§3) After electrophoresis, duplicate lanes were either stained with Coomassie blue dye or transferred to polyvinylidene fluoride (PVDF) membrane by electroblotting. Western blotting was performed by standard methods using antibodies with the indicated specificities. For southwestern blots, membranes were blocked for 30 minutes at 37° C. in tris-buffered saline and TWEEN® 20 (TBST) buffer containing with 1% bovine serum albumin (BSA), 10% non-fat dry milk, 2 mg/mL sonicated and heat-denatured salmon testis DNA, and TWEEN® 20 detergent. Folded fluorescent aptamers (5 μM final concentration) were then added in PBS containing 1 mM MgCl₂ and incubated with PVDF membranes for 14 hours, followed by washing in TBST buffer and then in 0.5× tris/borate/EDTA (TBE) buffer. Fluorescein fluorescence was then detected on membranes using the Typhoon Fluorescent Imaging system. Tryptic peptide mass fingerprinting was performed.
(§4) The specificity of anti-myelin DNA aptamer 3064 and controls 3060 and 3202 was analyzed by assessing the binding of fluorescent aptamers to crude myelin protein suspension using centrifugal sedimentation to recover bound aptamers (FIG. 5A). […] To further assess specificity, crude myelin proteins were separated by SDS-polyacrylamide gel electrophoresis and stained with Coomassie dye (myelin; FIG. 5B, left lane), or blotted to polyvinylidene (PVDF) membrane and probed with antibodies against myelin basic protein (MBP), proteolipid protein (PLP), or MOG in western blots (FIG. 5B, lanes 2-4), or probed with fluorescent aptamers 3202, 3060 or 3064 in southwestern blots (FIG. 5B, lanes 5-7). […] In particular, control aptamer 3060 and myelin-specific aptamer 3064 both bound to three myelin proteins with apparent molecular weights of 12.5 kDa, 18.5 kDa, and 23.8 kDa. Based on western analysis and mass spectrometry of tryptic peptides, these proteins were PLP, the 18.5 kDa isoform of MBP, and MOG, respectively.

[6] = target: T2, Myelin oligodendrocyte glycoprotein MOG …; assay: as above; conditions: tags: none; from crude SJL mouse CNS myelin, SDS-PAGE separated and blotted to PVDF; label: 5'-fluorescein; putative intramolecular G4
Procedure: as §3, §4

[7] = target: T4, Myelin basic protein 18.5 kDa isoform; assay: as above; conditions: tags: none; from crude SJL mouse CNS myelin, SDS-PAGE separated and blotted to PVDF; label: 5'-fluorescein; putative intramolecular G4
Procedure: as §3, §4

[8] = target: T3, Myelin basic protein isoforms …; assay: southwestern blot; 17 and 21.5 kDa bands bound only by 3064; conditions: tags: none; from crude SJL mouse CNS myelin, SDS-PAGE separated and blotted to PVDF; label: 5'-fluorescein; putative intramolecular G4
Procedure: (§5) To promote intramolecular folding, aptamer stock solutions (5 μM) in PBS were heated to 90° C., MgCl₂ was added to a final concentration of 1 mM, and solutions were allowed to cool room temperature. Myelin stock was diluted in PBS and sonicated on ice. Fluorescent folded aptamers were added to different amounts of myelin suspension and incubated at 37° C. for 3 hours. Insoluble material with bound aptamers was recovered by centrifugation for 30 seconds in a microcentrifuge. The pellet was washed with 100 μL PBS and again recovered by centrifugation. After phenol extraction and ethanol precipitation, fluorescent aptamers were quantitated in black plastic 96-well plates using a Typhoon Fluorescent Imaging system (GE Healthcare Biosciences; Piscataway, N.J.). For Southwestern blotting, 15 μg crude myelin protein was separated in each lane of a 10% Bis-Tris SDS polyacrylamide gel in 2-(N-morpholino)ethanesulfonic acid (MES) buffer. […] Fluorescein fluorescence was then detected on membranes using the Typhoon Fluorescent Imaging system. […]
as §2

[9] = target: T1, Proteolipid protein PLP (12.5 kDa band); assay: southwestern blot; 5 uM aptamer, PBS, 1 mM MgCl2; conditions: tags: none; from crude SJL mouse CNS myelin, SDS-PAGE separated and blotted to PVDF; label: 5'-fluorescein; putative intramolecular G4
Procedure: as §1, §2

[10] = target: T2, Myelin oligodendrocyte glycoprotein MOG …; assay: southwestern blot; 5 uM aptamer, PBS, 1 mM MgCl2; conditions: tags: none; from crude SJL mouse CNS myelin, SDS-PAGE separated and blotted to PVDF; label: 5'-fluorescein; putative intramolecular G4
Procedure: as §1, §2

[11] = target: T4, Myelin basic protein 18.5 kDa isoform; assay: southwestern blot; 5 uM aptamer, PBS, 1 mM MgCl2; conditions: tags: none; from crude SJL mouse CNS myelin, SDS-PAGE separated and blotted to PVDF; label: 5'-fluorescein; putative intramolecular G4
Procedure: as §1, §2

[12] = target: T3, Myelin basic protein isoforms …; assay: southwestern blot; unique to 3064; 5 uM aptamer, PBS, 1 mM MgCl2, 14 h; conditions: tags: none; from crude SJL mouse CNS myelin, SDS-PAGE separated and blotted to PVDF; label: 5'-fluorescein; putative intramolecular G4
Procedure: as §5, §2

T4 sequence (P04370 other isoform, or with tags, fused parts or gaps): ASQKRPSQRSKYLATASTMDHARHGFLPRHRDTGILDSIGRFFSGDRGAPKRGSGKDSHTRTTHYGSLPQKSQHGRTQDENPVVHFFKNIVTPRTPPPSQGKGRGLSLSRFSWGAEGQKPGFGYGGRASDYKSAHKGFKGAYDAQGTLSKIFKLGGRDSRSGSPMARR
T3 sequence (P04370 other isoform, or with tags, fused parts or gaps): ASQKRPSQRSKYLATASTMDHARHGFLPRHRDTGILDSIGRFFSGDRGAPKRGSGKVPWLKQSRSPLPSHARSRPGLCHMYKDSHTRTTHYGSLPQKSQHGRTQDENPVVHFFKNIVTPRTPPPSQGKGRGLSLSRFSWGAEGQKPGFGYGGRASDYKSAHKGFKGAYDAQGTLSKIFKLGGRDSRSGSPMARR

## TTTTTTTTTTTTTTTTTTTTTTTTTTTTTTTTTTTTTTTT (ssDNA) [3202 (dT40)]
[1]
  binding result: no binding
[2]
  binding result: no binding
[3]
  binding result: no binding
[4]
  binding result: no binding

## AAAGAACAAAAAGGATAAAGGGGGAGACGGGGGGAACATGGGG (ssDNA) [3060]
[5]
  binding result: binds
[6]
  binding result: binds
[7]
  binding result: binds
[8]
  binding result: no binding

## GGGTCGGCGGGTGGGGTGGGAGGTGGTCTTGTCTCTGGGT (ssDNA) [3064]
[9]
  binding result: binds
[10]
  binding result: binds
[11]
  binding result: binds
[12]
  binding result: binds
